# Experimental data as given in publication PMC7668070 (Proceedings of the National Academy of Sciences of the …, 2020).
# B1: S19P/N33S/H34V/F40L/N49D/L100P ACE2(614), Aga2p-GFP construct Y375, displayed on yeast (designed binder)
# chain: QPTIEEQAKTFLDKFSVEAEDLLYQSSLASWDYNTNITEENVQNMNNAGDKWSAFLKEQSTLAQMYPLQEIQNLTVKLQLQAPQQNGSSVLSEDKSKRLNTILNTMSTIYSTGKVCNPDNPQECLLLEPGLNEIMANSLDYNERLWAWESWRSEVGKQLRPLYEEYVVLKNEMARANHYEDYGDYWRGDYEVNGVDGYDYSRGQLIEDVEHTFEEIKPLYEHLHAYVRAKLMNAYPSYISPIGCLPAHLLGDMWGRFWTNLYSLTVPFGQKPNIDVTDAMVDQAWDAQRIFKEAEKFFVSVGLPNMTQGFWENSMLTDPGNVQKAVCHPTAWDLGKGDFRILMCTKVTMDDFLTAHHEMGHIQYDMAYAAQPFLLRNGANEGFHEAVGEIMSLSAATPKHLKSIGLLSPDFQEDNETEINFLLKQALTIVGTLPFTYMLEKWRWMVFKGEIPKDQWMKKWWEMKREIVGVVEPVPHDETYCDPASLFHVSNDYSFIRYYTRTLYQFQFQEALCQAAKHEGPLHKCDISNSTEAGQKLFNMLRLGKSEPWTLALENVVGAKNMNVRPLLNYFEPLFTWLKDQNKNSFVGWSTDWSPYA
# B2: K31Y/W69V/L79T/L91P ACE2(614), Aga2p-GFP construct Y311, displayed on yeast (designed binder)
# chain: QSTIEEQAKTFLDYFNHEAEDLFYQSSLASWNYNTNITEENVQNMNNAGDKVSAFLKEQSTTAQMYPLQEIQNPTVKLQLQALQQNGSSVLSEDKSKRLNTILNTMSTIYSTGKVCNPDNPQECLLLEPGLNEIMANSLDYNERLWAWESWRSEVGKQLRPLYEEYVVLKNEMARANHYEDYGDYWRGDYEVNGVDGYDYSRGQLIEDVEHTFEEIKPLYEHLHAYVRAKLMNAYPSYISPIGCLPAHLLGDMWGRFWTNLYSLTVPFGQKPNIDVTDAMVDQAWDAQRIFKEAEKFFVSVGLPNMTQGFWENSMLTDPGNVQKAVCHPTAWDLGKGDFRILMCTKVTMDDFLTAHHEMGHIQYDMAYAAQPFLLRNGANEGFHEAVGEIMSLSAATPKHLKSIGLLSPDFQEDNETEINFLLKQALTIVGTLPFTYMLEKWRWMVFKGEIPKDQWMKKWWEMKREIVGVVEPVPHDETYCDPASLFHVSNDYSFIRYYTRTLYQFQFQEALCQAAKHEGPLHKCDISNSTEAGQKLFNMLRLGKSEPWTLALENVVGAKNMNVRPLLNYFEPLFTWLKDQNKNSFVGWSTDWSPYA
# B3: S19P/Q42L/L79T/N90Q ACE2(614), Aga2p-GFP construct Y355, displayed on yeast (designed binder)
# chain: QPTIEEQAKTFLDKFNHEAEDLFYLSSLASWNYNTNITEENVQNMNNAGDKWSAFLKEQSTTAQMYPLQEIQQLTVKLQLQALQQNGSSVLSEDKSKRLNTILNTMSTIYSTGKVCNPDNPQECLLLEPGLNEIMANSLDYNERLWAWESWRSEVGKQLRPLYEEYVVLKNEMARANHYEDYGDYWRGDYEVNGVDGYDYSRGQLIEDVEHTFEEIKPLYEHLHAYVRAKLMNAYPSYISPIGCLPAHLLGDMWGRFWTNLYSLTVPFGQKPNIDVTDAMVDQAWDAQRIFKEAEKFFVSVGLPNMTQGFWENSMLTDPGNVQKAVCHPTAWDLGKGDFRILMCTKVTMDDFLTAHHEMGHIQYDMAYAAQPFLLRNGANEGFHEAVGEIMSLSAATPKHLKSIGLLSPDFQEDNETEINFLLKQALTIVGTLPFTYMLEKWRWMVFKGEIPKDQWMKKWWEMKREIVGVVEPVPHDETYCDPASLFHVSNDYSFIRYYTRTLYQFQFQEALCQAAKHEGPLHKCDISNSTEAGQKLFNMLRLGKSEPWTLALENVVGAKNMNVRPLLNYFEPLFTWLKDQNKNSFVGWSTDWSPYA
# B4: K31F/N33D/H34A/E35Q/N49D/N51S/N53S/E57G/N64D ACE2(614), Aga2p-GFP construct Y354, displayed on yeast (designed binder)
# chain: QSTIEEQAKTFLDFFDAQAEDLFYQSSLASWDYSTSITEGNVQNMNDAGDKWSAFLKEQSTLAQMYPLQEIQNLTVKLQLQALQQNGSSVLSEDKSKRLNTILNTMSTIYSTGKVCNPDNPQECLLLEPGLNEIMANSLDYNERLWAWESWRSEVGKQLRPLYEEYVVLKNEMARANHYEDYGDYWRGDYEVNGVDGYDYSRGQLIEDVEHTFEEIKPLYEHLHAYVRAKLMNAYPSYISPIGCLPAHLLGDMWGRFWTNLYSLTVPFGQKPNIDVTDAMVDQAWDAQRIFKEAEKFFVSVGLPNMTQGFWENSMLTDPGNVQKAVCHPTAWDLGKGDFRILMCTKVTMDDFLTAHHEMGHIQYDMAYAAQPFLLRNGANEGFHEAVGEIMSLSAATPKHLKSIGLLSPDFQEDNETEINFLLKQALTIVGTLPFTYMLEKWRWMVFKGEIPKDQWMKKWWEMKREIVGVVEPVPHDETYCDPASLFHVSNDYSFIRYYTRTLYQFQFQEALCQAAKHEGPLHKCDISNSTEAGQKLFNMLRLGKSEPWTLALENVVGAKNMNVRPLLNYFEPLFTWLKDQNKNSFVGWSTDWSPYA
# B5: K31F/H34I/E35Q ACE2(614), Aga2p-GFP construct Y293, displayed on yeast (designed binder)
# chain: QSTIEEQAKTFLDFFNIQAEDLFYQSSLASWNYNTNITEENVQNMNNAGDKWSAFLKEQSTLAQMYPLQEIQNLTVKLQLQALQQNGSSVLSEDKSKRLNTILNTMSTIYSTGKVCNPDNPQECLLLEPGLNEIMANSLDYNERLWAWESWRSEVGKQLRPLYEEYVVLKNEMARANHYEDYGDYWRGDYEVNGVDGYDYSRGQLIEDVEHTFEEIKPLYEHLHAYVRAKLMNAYPSYISPIGCLPAHLLGDMWGRFWTNLYSLTVPFGQKPNIDVTDAMVDQAWDAQRIFKEAEKFFVSVGLPNMTQGFWENSMLTDPGNVQKAVCHPTAWDLGKGDFRILMCTKVTMDDFLTAHHEMGHIQYDMAYAAQPFLLRNGANEGFHEAVGEIMSLSAATPKHLKSIGLLSPDFQEDNETEINFLLKQALTIVGTLPFTYMLEKWRWMVFKGEIPKDQWMKKWWEMKREIVGVVEPVPHDETYCDPASLFHVSNDYSFIRYYTRTLYQFQFQEALCQAAKHEGPLHKCDISNSTEAGQKLFNMLRLGKSEPWTLALENVVGAKNMNVRPLLNYFEPLFTWLKDQNKNSFVGWSTDWSPYA
# Target: SARS-CoV-2 spike RBD monomer (328-533), 8XHis tag, AviTag, biotinylated (SARS-CoV-2)
# Test: flow cytometry on cells
# Conditions: one partner purified
row,Binder,Kd
1,B1,610 pM
2,B2,640 pM
3,B3,940 pM
4,B4,450 pM
5,B5,1710 pM
